Data published in article PMC12745498, “Streptococcus pneumoniae HtrA is a dynamic and monomeric virulence factor capable of forming larger oligomeric complexes” (Protein Science : A Publication of the Protein Society, 2025).
Ends that are not written are not given here.

T1: S. pneumoniae HtrA protease domain (PD, residues 59-285) (Streptococcus pneumoniae, UniProt A0A0H2ZQD7 59-285)
T1 construct: HtrA serine protease of Streptococcus pneumoniae, protease domain alone, residues 59-285; 15N-labeled where it is the observed partner of an NMR titration; also called HtrA PD; PD WT; source: E. coli BL21(DE3), purified (Ni column, preparative sizing column)
T1 sequence: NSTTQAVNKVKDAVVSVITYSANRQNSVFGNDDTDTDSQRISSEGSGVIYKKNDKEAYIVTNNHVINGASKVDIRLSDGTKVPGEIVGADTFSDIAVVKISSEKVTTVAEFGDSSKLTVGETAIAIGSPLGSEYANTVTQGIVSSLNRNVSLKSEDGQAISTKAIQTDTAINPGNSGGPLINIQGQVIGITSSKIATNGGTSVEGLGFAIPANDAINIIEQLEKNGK

B1: S. pneumoniae HtrA S234A full ectodomain (residues 59-393) (enzyme)
chain: NSTTQAVNKVKDAVVSVITYSANRQNSVFGNDDTDTDSQRISSEGSGVIYKKNDKEAYIVTNNHVINGASKVDIRLSDGTKVPGEIVGADTFSDIAVVKISSEKVTTVAEFGDSSKLTVGETAIAIGSPLGSEYANTVTQGIVSSLNRNVSLKSEDGQAISTKAIQTDTAINPGNAGGPLINIQGQVIGITSSKIATNGGTSVEGLGFAIPANDAINIIEQLEKNGKVTRPALGIQMVNLSNVSTSDIRRLNIPSNVTSGVIVRSVQSNMPANGHLEKYDVITKVDDKEIASSTDLQSALYNHSIGDTIKITYYRNGKEETTSIKLNKSSGDLES
notes: HtrA serine protease of Streptococcus pneumoniae, full ectodomain, residues 59-393, catalytic serine changed to alanine; the mutant's own cloning is not described; also called full HtrA S234A ectodomain; catalytic mutant; source: E. coli, purified (monomer and hexamer separated by size-exclusion chromatography)
B2: S. pneumoniae HtrA PDZ domain (residues 285-393) (domain or fragment, Streptococcus pneumoniae, UniProt A0A0H2ZQD7 285-393, looked up)
chain: KVTRPALGIQMVNLSNVSTSDIRRLNIPSNVTSGVIVRSVQSNMPANGHLEKYDVITKVDDKEIASSTDLQSALYNHSIGDTIKITYYRNGKEETTSIKLNKSSGDLES
notes: HtrA serine protease of Streptococcus pneumoniae, PDZ domain alone, residues 285-393 (the methods print 285-493); cloned downstream of human SUMO1 to give the PDZ with no overhang; source: E. coli BL21(DE3), purified (Ni column, ULP1 cleavage, Ni column, preparative sizing column); not shown: 6xHis, N-terminal, cleaved; hSUMO1, N-terminal, cleaved
B3: β-casein residues 21-70 (domain or fragment, bovine, UniProt P02666 21-70, looked up)
chain: LNVPGEIVESLSSSEESITRINKKIEKFQSEEQQQTEDELQDKIHPFAQT
modifications: ends and bridges not checked
notes: bovine β-casein, residues 21-70; also called N-terminal segment (21-70); source: recombinantly produced in-house with the hSUMO1 system (as for the HtrA PDZ)

Assays:
[1] = target: the molecule itself; assay: SEC; size-exclusion chromatography of HtrA WT, HtrA S234A, β-casein and a mixture of HtrA S234A with excess β-casein
[2] = target: T1, S. pneumoniae HtrA protease domain (PD, …); assay: NMR titration; 500 μM 15N-labeled PDZ titrated with unlabeled PD (0.5-4 mM); 15N-HSQC at 900 MHz, 35°C; 50 mM sodium phosphate pH 6, 50 mM NaCl; global fit of CSPs, single-site model; conditions: both partners purified
[3] = target: T1, S. pneumoniae HtrA protease domain (PD, …); assay: NMR titration; 500 μM 15N-labeled PD titrated with unlabeled PDZ (0.25-4 mM); 15N-HSQC at 900 MHz, 35°C; 50 mM sodium phosphate pH 6, 50 mM NaCl; global fit of CSPs, single-site model; conditions: both partners purified
[4] = target: B2; assay: NMR titration; 250 μM 15N-labeled HtrA PDZ titrated with recombinant β-casein fragments (final 400 μM); 15N-HSQC, global fit of CSPs; conditions: both partners purified

Binder: B1
- stoichiometry N [1]: 6

Binder: B2
- Kd [2]: 1000 ± 500 µM
- Kd [3]: 480 ± 43 µM

Binder: B3
- Kd [4]: 215 ± 35 µM
